Data published in patent US20110287023A1 (AstraZeneca / MedImmune, published 2011).
Where no end group is shown, it is not given here.

Columns and labels:
[1] = biological target: T1, HMGB1 B-box peptide 108-138 (UniProt P09429 108-138, biotinylated); experiment: ELISA on biotinylated overlapping peptides
T1 peptide (looked up): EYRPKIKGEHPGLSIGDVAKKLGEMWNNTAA
Procedure: (§1) The plate was then blocked with 4% milk powder dissolved in PBS at 37° C. for 1 hour. The blocking solution was removed and replaced with human anti-HMG1 antibodies at various concentrations (see FIGS. 5A-B). […] HRP activity was detected with Sureblue HRP substrate (KPL). Plates were read at 450 nm using a Kinetic Microplate Reader (Molecular Devices). […] After washing and blocking with 1% BSA in PBS, the biotinylated peptides were individually added into the avidin coated wells and incubated for 30 min at room temperature. The serial diluted antibody G4, S16 and S6 at the initial concentration at 10 μg/ml were then transferred into the wells followed by adding mouse anti human IgG-HRP conjugate (Pierce). Detection was accomplished by adding 50 μl of tetramethylbenzidine (TMB) substrate (KPL) and the absorbance was read at 450 nm.

[2] = biological target: T2, HMGB1 C-terminal tail peptide 188-215 (UniProt P09429 188-215, biotinylated); experiment: ELISA on biotinylated overlapping peptides
T2 peptide (looked up): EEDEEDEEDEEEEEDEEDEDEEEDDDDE
Procedure: as §1

HMGB1 peptide 106-123 = biological target: T3, HMGB1 peptide 106-123 (also: biotinylated, site and spacer not given here); experiment: ELISA, biotinylated peptide on NeutrAvidin plate, antibody serially diluted from 10 ug/ml, anti-human IgG-HRP, OD 450
T3 peptide: CSEYRPKIKGEHPGLSIG
Procedure: as §1

HMGB1 peptide 166-183 = biological target: T4, HMGB1 peptide 166-183 (UniProt P09429 166-183, also: biotinylated, site not given here); experiment: as above
T4 peptide (looked up): GKPDAAKKGVVKAEKSKK
Procedure: as §1

HMGB1 peptide 179-186 = biological target: T5, HMGB1 peptide 179-186 (UniProt P09429 179-186, also: biotinylated, site not given here); experiment: as above
T5 peptide (looked up): EKSKKKKE
Procedure: as §1

[3] = biological target: T6, HMG1 purified from calf (bovine) thymus (bovine, UniProt P10103 2-215); experiment: blocking ELISA: thymus HMGB1 pre-incubated with the antibody, then added to coated RAGE/Fc (blocked partner: RAGE/Fc); one bar per antibody, the antibody's concentration is not given
T6 construct: also called Calf thymus HMGB1; thymus HMG1
T6 sequence (looked up): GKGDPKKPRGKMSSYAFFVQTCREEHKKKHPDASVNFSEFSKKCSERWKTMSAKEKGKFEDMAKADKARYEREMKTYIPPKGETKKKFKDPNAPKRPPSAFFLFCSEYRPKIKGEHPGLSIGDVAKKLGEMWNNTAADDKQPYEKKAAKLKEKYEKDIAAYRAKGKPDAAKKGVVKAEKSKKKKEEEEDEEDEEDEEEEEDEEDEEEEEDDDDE
Procedure: HMG1 binding to RAGE-Ig by ELISA: 50 μl/well of RAGE-Fc fusion protein at 5 μg/ml in PBS was added to each well of an ELISA plate and incubated overnight at 4° C. The plate was then blocked with 200 μl of 5% milk at 37° C. for 1 hr and washed 3× with PBS/Tween. 50 μl/well of diluted HMGB1 solution. For dose curves, HMGB1 concentrations started at 4 ug/ml in PBS. For antibody blocking the HMGB1 was preincubated in another plate with human anti-HMG1 antibodies or buffer, then transferred to the RAGE-coated plate. The plates were then incubated at room temperature for 2 hours and washed 3×. To detect any HMG1 bound to the immobilized RAGE-Fc a mixture of biotinylated mouse anti-HMG1 mAbs (10D4, 4H11, 3E10 and 5C12) each at 1 ug/ml, total Ab: 4 ug/ml, were added to each well and the plate was incubated for 1 hour at room temperature. The plate was then washed and Strepavidin-HPR was added to each well and incubated 15 min. The plate was then washed 3× and blotted dry. 100 μl of TMB developing agent was added and the plate read at 650 nm. Values were calculated as percent of inhibition with HMG1 alone equal to 0% inhibition. The data in FIG. 9 and summarized in Table 1 represent the average of two separate experiments.

B1: human anti-HMG1 antibody G4 (antibody, IgG1, V domains shown)
VH: EVQLLESGGGLVQPGGSLRLSCAASGFTFSWYDMTWVRQAPGKGLEWVSSISPSGGYTKYADSVKGRFTISRDNSKNTLYLQMNSLRAEDTAVYYCTTEFYDYLDVWGKGTTVTVSS
VL: DIQMTQSPGTLSLSPGEGATLSCRASQSVSSTYLAWYQQKPGQAPRLLIYEASKRATGTPARFSGSGSGTDFTLSISSLEPEDFAVYYCQHRHNWPPQWTFGQGTKVEVK
notes: full length IgG1 made from a human Fab phage clone; also called ATCC PTA-6258
B1: binds [1]; binds [2]; binds (HMGB1 peptide 106-123).

B2: human anti-HMG1 antibody S16 (antibody, IgG1, V domains shown)
VH: EVQLLESGGGLVQPGGSLRLSCAASGFTFSWYSMLWVRQAPGKGLEWVSYISPSGGFTNYADSVKGRFTISRDNSKNTLYLQMNSLRAEDTAVYYCARWDYNSGWYYDHWGQGTLVTVSS
VL: DIQMTQSPDTLSLSPGERATLSCRASQSVNSRNLAWYQQKPGQAPRLLIYGASTRATGIPDRFSGSVSGTEFTLTISSLQPDDFATYYCQQYNSYFTFGQGTKLEIK
notes: full length IgG1 made from a human Fab phage clone; also called ATCC PTA-6259
B2: binds (HMGB1 peptide 166-183); binds (HMGB1 peptide 179-186).

B3: human anti-HMG1 antibody E11 (antibody, IgG1, V domains shown)
VH: EVQLLESGGGLVQPGGSLRLSCAASGFTFSRYQMNWVRQAPGKGLEWVSSISPSGGHTHYADSVKGRFTISRDNSKNTLYLQMNSLRAEDTAVYYCAKDGRQGKISTVDHWGQGTLVTVSS
VL: DIQMTQSPGTLSLSPGERATLSCRASQSVRSNFLAWYQQKPGQAPRLLIYGASRRASGIPDRFSGSGFGADFTLSISRLEPEDFAVYYCQQYGSSPNTFGQGSRVEIK
notes: full length IgG1 made from a human Fab phage clone
B3: binds [3].
